Reference: patent publication US20070196275A1, “Diagnostic Imaging Compositions, Their Methods Of Synthesis And Use” (priority 2001, published 2007)

Tests used:
[1] = parameters: species or system Nude mice; conditions: mouse, in vivo; for clearance / t1/2, α / t1/2, β / terminal half-life (rounded figures): iv
Method: At predetermined intervals, blood samples (30-60 μl) were taken from the medial saphenous vein by puncture, and the radioactivity of each sample was measured with a Cobra Autogamma counter (Packard, Downers Grove, Ill.). The pharmacokinetic parameters for each radiotracer were calculated from mean blood concentration values observed over the study period using WinNonlin™ 2.1 software (Scientific Consulting, Inc., Lexington, Ky.). The mice were killed at the end of the study, and the liver, muscle, kidneys, and spleen were removed, weighed, and measured for radioactivity. The data are expressed as percentage of injected dose per gram of tissue. In FIG. 15A, the y-axis represents % Injected dose/ml blood; the x-axis represents time in hours. Squares represent Annexin V. Diamonds represent PEG-Annexin V. In FIG. 15B, the y-axis represents % Injected dose/g tissue. From left to right, the paired bars in FIG. 15B represent blood, liver, kidney, spleen, and muscle tissues, respectively. The bars on the left of the paired bars represent Annexin V. The bars on the right of the paired bars represent PEG-Annexin V.

[2] = tested on: Ara-C treated HL60 and Raji cells (apoptotic cells); test: Cell binding assay of radiolabeled PEGylated annexin V; parameters: species or system human; conditions: 1.0 μM Ara-C
Method: The 1:30 and 1:60 preps of PEGylated annexin V were tested for their ability to bind to cells that had been treated with Ara-C to induce apoptosis. Human leukemia HL60 or human B-cell lymphoma Raji cells (1×10^6 cells/ml each) were treated with Ara-C at 1.0 μM for 6 hours or 22 hours to induce apoptosis. The cells were then washed twice with PBS and re-suspended in binding buffer (10 mM HEPES/NaOH, pH 7.5 containing 140 mM NaCl and 2.5 mM CaCl2) at a concentration of 1×10^6 cells/ml. Five μl annexin V-FITC solution (50 μg/ml in 50 mM Tris-HCl, pH 7.5, containing 100 mM NaCl) was added into the control cells as well as treated cells. The mixtures were incubated at room temperature for 10 minutes. Apoptotic cells stained with annexin V-FITC (Sigma) were quantified with a Labsystems Fluoroskan FL flow cytometer (Helsinki, Finland) (FIG. 13). […] The cells were washed twice with PBS, centrifuged and counted for cell-associated radioactivity (FIG. 14). FIG. 13 is a bar graph showing apoptotic index after treatment with 1.0 uM Ara-C as quantified by flow cytometry analysis using annexin V-FITC as fluorescent probe. In FIG. 13, the y-axis represents the percent apoptotic cells; the x-axis represents the time after treatment in hours. […] In FIG. 14, the y-axis represents radioactivity in cpm; the x-axis represents time after treatment in hours. […]

[3] = tested on: MDA-MB-468 tumors; parameters: species or system mice; conditions: mouse, in vivo
Method: The following materials and methods were used in this example. Human breast adenocarcinoma MDA-MB-468 cells were maintained in 1:1(v/v) Dulbecco's modified Eagle's medium (DMEM)/Ham's F-12 mixture supplemented with 10% fetal bovine serum (FBS) (Gibco Laboratories, Grand Island, N.Y.) at 37 C in 5% CO2/95% air. […] Mice in Group I were not treated and were used as a control. In Group II, mice were injected intravenous with PG-paclitaxel (PG-TXL) at an equivalent paclitaxel (Taxol, TXL) dose of 100 mg/kg 1 day before the injection of radiotracer. PG-TXL is a water-soluble polymeric conjugate of paclitaxel and poly(l-glutamic acid). […] The conjugate has the same mechanism of action as paclitaxel. […] Radioactivity of each sample was measured with the Cobra Auto-gamma Counter (Packard, Downers Grove, Ill.). The percentage of the injected dose per gram of tissue (% ID/g tissue) was calculated for each sample. In a separate experiment, tumors were histologically analyzed to quantify apoptotic index induced by drug treatments. […] Apoptosis index was scored in coded slides by microscopic examination at 400× magnification. Five fields of nonnecrotic areas were randomly selected in each histological specimen, and in each field the number of apoptotic nuclei were recorded as numbers per 100 nuclei and were expressed as a percentage. […]

[4] = tested on: HL60 cells and Raji cells; test: Flow cytometry of apoptotic cells stained with annexin V-FITC; format: cell-based, human; conditions: 1.0 μM, 22 hours, annexin V-FITC staining
Method: The 1:30 and 1:60 preps of PEGylated annexin V were tested for their ability to bind to cells that had been treated with Ara-C to induce apoptosis. Human leukemia HL60 or human B-cell lymphoma Raji cells (1×10^6 cells/ml each) were treated with Ara-C at 1.0 μM for 6 hours or 22 hours to induce apoptosis. The cells were then washed twice with PBS and re-suspended in binding buffer (10 mM HEPES/NaOH, pH 7.5 containing 140 mM NaCl and 2.5 mM CaCl2) at a concentration of 1×10^6 cells/ml. Five μl annexin V-FITC solution (50 μg/ml in 50 mM Tris-HCl, pH 7.5, containing 100 mM NaCl) was added into the control cells as well as treated cells. The mixtures were incubated at room temperature for 10 minutes. Apoptotic cells stained with annexin V-FITC (Sigma) were quantified with a Labsystems Fluoroskan FL flow cytometer (Helsinki, Finland) (FIG. 13). […] The cells were washed twice with PBS, centrifuged and counted for cell-associated radioactivity (FIG. 14).
FIG. 13 is a bar graph showing apoptotic index after treatment with 1.0 uM Ara-C as quantified by flow cytometry analysis using annexin V-FITC as fluorescent probe. In FIG. 13, the y-axis represents the percent apoptotic cells; the x-axis represents the time after treatment in hours. […] In FIG. 14, the y-axis represents radioactivity in cpm; the x-axis represents time after treatment in hours. […]

[5] = tested on: MDA-MB-468 tumors; test: Autoradiography and TUNEL assay; format: in vivo, mice; conditions: 4 days after treatment, intratumoral distribution of ^111In-DTPA-PEG-AV
From the text: Two tumors removed from each group of mice at the end of the gamma imaging session were rapidly frozen, processed, and 8-μm sections were made. The sliced sections were fixed in cold acetone, dried, and exposed to a multipurpose storage phosphor screen for 10 days. A Cyclone™ Storage Phosphor System (Packard Instrument Company, Inc., Meriden, Conn.) was used to obtain autoradiographic images. The radioactivity at selected field of view is expressed as digital light unit per millimeter square (DLU/mm^2).
DNA fragmentation was analyzed by terminal deoxynucleotidyl transferase (TdT)-uridine nick end labeling (TUNEL) using a commercial kit according to the manufacturer provided protocol (Promega, Madison, Wis.). Frozen tissue sections (8 μm) were fixed with 4% paraformaldehyde (methanol-free) for 10 minutes at room temperature. The sections were washed with PBS two times (5 minutes each) and incubated with equilibration buffer (Promega) for 10 minutes at room temperature. […] Images were recorded using an Olympus fluorescence microscope (Olympus, Melville, N.Y.) with 520 nm filter and 20× object lens. Apoptotic cells per slide view were quantified by AAB colony counting software (Advanced American Biotechnology, Fullerton, Calif.) and expressed as number per field of view (0.016 mm^2).

Molecule: 1:15 prep ^111In-DTPA-PEG-annexin V: ^111In-labeled annexin V PEGylated with SCN-PEG-DTPA, 1:15 prep
- percentage of injected dose per gram of tissue, blood [1]: 0.36±0.05%
- percentage of injected dose per gram of tissue, kidney [1]: 22.35±4.74%
- percentage of injected dose per gram of tissue, liver [1]: 8.37±2.76%
- percentage of injected dose per gram of tissue, muscle [1]: 0.75±0.04%
- percentage of injected dose per gram of tissue, spleen [1]: 6.75±0.44%
- clearance [1]: 0.01 mL/h
- t1/2, α [1]: 4.90 h
- t1/2, β [1]: 26.3 h
- terminal half-life (rounded figures) [1]: 26 h

Molecule: 1:30 prep of ^111In-DTPA-PEG-AV: ^111In-labeled annexin V PEGylated with SCN-PEG-DTPA at molar ratio 1:30
- increase of cell associated radioactivity after treatment with Ara-C ([2]; HL60 and Raji cells): 4-6 fold
- change of tumor uptake 1 day after PG-TXL [3]: slight but non-significant increase of the radiotracer in the tumor

Molecule: 1:60 prep of ^111In-DTPA-PEG-AV: ^111In-labeled annexin V PEGylated with SCN-PEG-DTPA at molar ratio 1:60
- binding to Ara-C treated cells ([2]; Raji cells): did not show binding to the Ara-C treated cells

Molecule: Nc1ccn([C@@H]2O[C@H](CO)[C@@H](O)[C@@H]2O)c(=O)n1 [Ara-C]
- increase of percentage of apoptotic cells [4]: 4-10 fold

Molecule: ^111In-DTPA-annexin V: ^111In-labeled annexin V with DTPA, without PEG; comparison [reference compound]
- clearance [1]: 0.4 mL/h
- t1/2, α [1]: 0.07 h
- t1/2, β [1]: 17.4 h
- terminal half-life (rounded figures) [1]: 17 h

Molecule: poly (L-glutamic acid)-paclitaxel conjugate [PG-TXL]
- apoptotic response of the tumor to treatment [5]: increased apoptosis
